15 molecules from US20190194276A1 (MAYO FOUNDATION FOR MEDICAL EDUCATION AND RESEARCH, published 2019) can be followed below.

Residue numbers refer to the chain shown, from its start. In names and notes the source's numbering stands. Ends that are not written are not given here.

Assay [1] has as its target T1, endogenous IQGAP1 (human, UniProt P46940 2-1657).
T1 construct: also called cellular IQGAP1
The assay is described as follows: GST pull-down from DU145 whole cell lysate, Western blot. In general terms: A western blot detects proteins with antibodies after separation by electrophoresis.

Assay [2] concerns the target T1, endogenous IQGAP1. Kind of assay: co-IP with anti-IQGAP1 from LNCaP cells transfected with HA-FOXO3, Western blot.
For assay [3], the target named is T1, endogenous IQGAP1. Kind of assay: co-IP with anti-Flag from LNCaP cells expressing SFB-tagged peptides, Western blot.
For assay [4], the target named is T1, endogenous IQGAP1. The assay is described as follows: co-IP with anti-Flag from transfected LNCaP cells, Western blot.
The target in assay [5] is T1, endogenous IQGAP1. Kind of assay: TAP of SFB-FOXO1 from 293T cells, LC-MS/MS.
Protocol: 24 hours after transfection, cells were lysed by NETN buffer (20 mM Tris-HCl, pH8.0, 100 mM NaCl, 1 mM EDTA, 0.5% Nonidet P-40) with 50 mM β-glycerophosphate, 10 mM NaF, and 1 μg/mL pepstatin-A at 4° C. for 3 hours. The supernatants were incubated with streptavidin sepharose beads (GE) at 4° C. overnight. The beads were washed with NETN buffer for three times and then eluted by 2 mM biotin (Sigma) for 1 hour at 4° C. twice. The elution products were incubated with S-protein agarose beads (Novagen) overnight at 4° C. and after three times wash the products bound to S-protein agarose beads were subjected to SDS-PAGE and visualized by silver staining or Code-blue staining.
Briefly, excised gel bands were cut into approximately 1 mm³ pieces. […] Gel pieces were washed and dehydrated with acetonitrile for 10 minutes followed by removal of acetonitrile. Pieces were then completely dried in a speed-vac. […] After 45 minutes, the excess trypsin solution was removed and replaced with 50 mM ammonium bicarbonate solution to just cover the gel pieces. Samples were then placed in a 37° C. room overnight. Peptides were later extracted by removing the ammonium bicarbonate solution, followed by one wash with a solution containing 50% acetonitrile and 1% formic acid. The extracts were then dried in a speed-vac (˜1 hour). The samples were then stored at 4° C. until analysis.
The target of assay [6] is T1, endogenous IQGAP1. Kind of assay: co-IP with anti-IQGAP1 from LNCaP cells transfected with HA-FOXO4, Western blot.

T1 sequence (P46940 2-1657 limits assumed): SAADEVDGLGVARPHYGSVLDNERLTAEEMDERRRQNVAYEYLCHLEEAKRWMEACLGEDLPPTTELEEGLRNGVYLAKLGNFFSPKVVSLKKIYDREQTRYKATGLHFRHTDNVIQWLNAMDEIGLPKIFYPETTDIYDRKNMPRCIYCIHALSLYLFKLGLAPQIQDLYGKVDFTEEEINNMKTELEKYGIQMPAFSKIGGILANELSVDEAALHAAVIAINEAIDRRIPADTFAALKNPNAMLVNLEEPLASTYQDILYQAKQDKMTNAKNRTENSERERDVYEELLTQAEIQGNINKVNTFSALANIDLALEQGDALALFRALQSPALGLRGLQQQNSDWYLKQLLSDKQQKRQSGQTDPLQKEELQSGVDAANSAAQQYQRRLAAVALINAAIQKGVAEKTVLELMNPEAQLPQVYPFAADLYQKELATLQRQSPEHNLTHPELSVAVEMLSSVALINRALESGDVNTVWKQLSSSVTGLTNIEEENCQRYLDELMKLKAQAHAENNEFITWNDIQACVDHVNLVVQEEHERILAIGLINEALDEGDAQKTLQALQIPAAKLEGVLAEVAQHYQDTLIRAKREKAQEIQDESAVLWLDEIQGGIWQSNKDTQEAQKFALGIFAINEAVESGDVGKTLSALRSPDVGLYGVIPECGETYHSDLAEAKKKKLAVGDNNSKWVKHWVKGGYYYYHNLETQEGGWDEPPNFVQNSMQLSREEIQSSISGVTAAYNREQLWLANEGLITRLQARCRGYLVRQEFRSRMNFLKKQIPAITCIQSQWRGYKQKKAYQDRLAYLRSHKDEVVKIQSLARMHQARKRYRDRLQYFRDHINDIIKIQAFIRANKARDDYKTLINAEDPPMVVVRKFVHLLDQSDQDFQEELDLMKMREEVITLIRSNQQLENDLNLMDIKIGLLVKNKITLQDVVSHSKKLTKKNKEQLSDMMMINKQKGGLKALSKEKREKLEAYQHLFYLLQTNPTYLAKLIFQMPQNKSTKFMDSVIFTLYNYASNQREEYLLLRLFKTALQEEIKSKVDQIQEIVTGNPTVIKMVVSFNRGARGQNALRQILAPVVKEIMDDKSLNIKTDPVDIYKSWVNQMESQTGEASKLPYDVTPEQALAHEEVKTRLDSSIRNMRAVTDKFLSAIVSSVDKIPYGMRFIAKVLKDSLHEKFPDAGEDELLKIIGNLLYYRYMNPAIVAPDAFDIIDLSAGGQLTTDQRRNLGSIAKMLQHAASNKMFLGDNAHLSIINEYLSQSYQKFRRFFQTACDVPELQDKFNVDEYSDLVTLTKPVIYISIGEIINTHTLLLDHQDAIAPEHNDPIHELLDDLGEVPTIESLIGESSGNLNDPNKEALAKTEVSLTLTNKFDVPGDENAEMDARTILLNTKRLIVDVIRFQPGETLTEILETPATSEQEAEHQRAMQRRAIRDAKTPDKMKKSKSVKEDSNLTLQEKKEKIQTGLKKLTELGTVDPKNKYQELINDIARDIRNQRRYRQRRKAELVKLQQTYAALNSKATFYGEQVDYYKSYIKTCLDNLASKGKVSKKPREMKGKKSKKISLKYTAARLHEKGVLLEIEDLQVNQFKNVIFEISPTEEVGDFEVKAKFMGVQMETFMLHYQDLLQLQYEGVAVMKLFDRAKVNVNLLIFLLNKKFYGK

B1: GST-FOXO1-5 (amino acids 488-655) (other, human, UniProt Q12778 488-655, looked up, not shown: a dimerising Fc or GST)
chain: NSRVLGQNVMMGPNSVMSTYGSQASHNKMMNPSSHTHPGHAQQTSAVNGRPLPHTVSTMPHTSGMNRLTQVKTPVQVPLPHPMQMSALGGYSSVSSCNGYGRMGLLHQEKLPSDLDGMFIERLDCDMESIIRNDLMDGDTLDFNFDNVLPNQSFPHSVKTTTHSWVSG
notes: range 488-655
B1: the binding result with endogenous IQGAP1 [1] is on record as “no binding”.

B2: GST-FOXO1-4 (amino acids 354-503) (other, human, UniProt Q12778 354-503, looked up, not shown: a dimerising Fc or GST)
chain: KMASTLPSLSEISNPENMENLLDNLNLLSSPTSLTVSTQSSPGTMMQQTPCYSFAPPNTSLNSPSPNYQKYTYGQSSMSPLPQMPIQTLQDNKSSYGGMSQYNCAPGLLKELLTSDSPPHNDIMTPVDPGVAQPNSRVLGQNVMMGPNSV
notes: range 354-503
As for B2, the binding result with endogenous IQGAP1 [1] is recorded as “no binding”.

B3: HA-FOXO3 (other, UniProt O43524 1-673, looked up)
chain: MAEAPASPAPLSPLEVELDPEFEPQSRPRSCTWPLQRPELQASPAKPSGETAADSMIPEEEDDEDDEDGGGRAGSAMAIGGGGGSGTLGSGLLLEDSARVLAPGGQDPGSGPATAAGGLSGGTQALLQPQQPLPPPQPGAAGGSGQPRKCSSRRNAWGNLSYADLITRAIESSPDKRLTLSQIYEWMVRCVPYFKDKGDSNSSAGWKNSIRHNLSLHSRFMRVQNEGTGKSSWWIINPDGGKSGKAPRRRAVSMDNSNKYTKSRGRAAKKKAALQTAPESADDSPSQLSKWPGSPTSRSSDELDAWTDFRSRTNSNASTVSGRLSPIMASTELDEVQDDDAPLSPMLYSSSASLSPSVSKPCTVELPRLTDMAGTMNLNDGLTENLMDDLLDNITLPPSQPSPTGGLMQRSSSFPYTTKGSGLGSPTSSFNSTVFGPSSLNSLRQSPMQTIQENKPATFSSMSHYGNQTLQDLLTSDSLSHSDVMMTQSDPLMSQASTAVSAQNSRRNVMLRNDPMMSFAAQPNQGSLVNQNLLHHQHQTQGALGGSRALSNSVSNMGLSESSSLGSAKHQQQSPVSQSMQTLSDSLSGSSLYSTSANLPVMGHEKFPSDLDLDMFNGSLECDMESIIRSELMDADGLDFNFDSLISTQNVVGLNVGNFTGAKQASSQSWVPG
notes: Expressed in LNCaP cells; not shown: HA tag
For the molecule B3, the binding result with endogenous IQGAP1 [2] was “binds”.

B4: SFB-FOXO1-IQBP S319 (peptide, not shown: small tags and cut ends)
peptide: NDDFDNWSTFRPRTSSNASTISGRLSPIMT
modifications: also: SFB tag, position not given here
notes: Expressed in LNCaP cells; also called wild-type counterpart
Regarding B4, the binding result with endogenous IQGAP1 [3] is on record as “binds”.
The same measure, in the same setting: the result for NDDFDNWSTFRPRTSDNASTISGRLSPIMT (peptide, not shown: small tags and cut ends, also: SFB tag, position not given here, Expressed in LNCaP cells) [SFB-FOXO1-IQBP S319D] reads “binds”.

B5: SFB-FOXO1-IQBP S319E (peptide, not shown: small tags and cut ends)
peptide: B4 peptide with S16E
modifications: also: SFB tag, position not given here
notes: Expressed in LNCaP cells; also called Flag-tagged FOXO1 IQBP(SE)
Take B5: the binding result in the assay with endogenous IQGAP1 [3] was “binds”.

B6: Flag-FOXO1-A3 (T24A/S256A/S319A) (other, human, UniProt Q12778 1-655, looked up)
chain: MAEAPQVVEIDPDFEPLPRPRSCAWPLPRPEFSQSNSATSSPAPSGSAAANPDAAAGLPSASAAAVSADFMSNLSLLEESEDFPQAPGSVAAAVAAAAAAAATGGLCGDFQGPEAGCLHPAPPQPPPPGPLSQHPPVPPAAAGPLAGQPRKSSSSRRNAWGNLSYADLITKAIESSAEKRLTLSQIYEWMVKSVPYFKDKGDSNSSAGWKNSIRHNLSLHSKFIRVQNEGTGKSSWWMLNPEGGKSGKSPRRRAAAMDNNSKFAKSRSRAAKKKASLQSGQEGAGDSPGSQFSKWPASPGSHSNDDFDNWSTFRPRTSANASTISGRLSPIMTEQDDLGEGDVHSMVYPPSAAKMASTLPSLSEISNPENMENLLDNLNLLSSPTSLTVSTQSSPGTMMQQTPCYSFAPPNTSLNSPSPNYQKYTYGQSSMSPLPQMPIQTLQDNKSSYGGMSQYNCAPGLLKELLTSDSPPHNDIMTPVDPGVAQPNSRVLGQNVMMGPNSVMSTYGSQASHNKMMNPSSHTHPGHAQQTSAVNGRPLPHTVSTMPHTSGMNRLTQVKTPVQVPLPHPMQMSALGGYSSVSSCNGYGRMGLLHQEKLPSDLDGMFIERLDCDMESIIRNDLMDGDTLDFNFDNVLPNQSFPHSVKTTTHSWVSG
notes: Expressed in LNCaP cells; also called triple mutant; not shown: Flag tag
B6: the binding result with endogenous IQGAP1 [4] is on record as “no binding”.

B7: SFB-tagged FOXO1 (other, human, UniProt Q12778 1-655, looked up)
chain: B6 chain with A24T, A256S, A319S
notes: also called SFB-FOXO1; not shown: about 12 kDa, 119 amino acid
Turning to B7, the binding result with endogenous IQGAP1 [5] is reported as “binds”.

B8: Flag-FOXO1-T24A (other, human, UniProt Q12778 1-655, looked up)
chain: B6 chain with A256S, A319S
notes: Expressed in LNCaP cells; not shown: Flag tag
Consider B8, for which, in the assay with endogenous IQGAP1 [4], the binding result is “binds”.

B9: Flag-FOXO1-S319A (other, human, UniProt Q12778 1-655, looked up)
chain: B6 chain with A24T, A256S
notes: as for B8
As for B9, the binding result with endogenous IQGAP1 [4] was “no binding”.

B10: Flag-FOXO1-S256A (other, human, UniProt Q12778 1-655, looked up)
chain: B6 chain with A24T, A319S
notes: as for B8
In the case of B10, the binding result with endogenous IQGAP1 [4] was “binds”.

B11: HA-FOXO4 (other, UniProt P98177 1-505, looked up)
chain: MDPGNENSATEAAAIIDLDPDFEPQSRPRSCTWPLPRPEIANQPSEPPEVEPDLGEKVHTEGRSEPILLPSRLPEPAGGPQPGILGAVTGPRKGGSRRNAWGNQSYAELISQAIESAPEKRLTLAQIYEWMVRTVPYFKDKGDSNSSAGWKNSIRHNLSLHSKFIKVHNEATGKSSWWMLNPEGGKSGKAPRRRAASMDSSSKLLRGRSKAPKKKPSVLPAPPEGATPTSPVGHFAKWSGSPCSRNREEADMWTTFRPRSSSNASSVSTRLSPLRPESEVLAEEIPASVSSYAGGVPPTLNEGLELLDGLNLTSSHSLLSRSGLSGFSLQHPGVTGPLHTYSSSLFSPAEGPLSAGEGCFSSSQALEALLTSDTPPPPADVLMTQVDPILSQAPTLLLLGGLPSSSKLATGVGLCPKPLEAPGPSSLVPTLSMIAPPPVMASAPIPKALGTPVLTPPTEAASQDRMPQDLDLDMYMENLECDMDNIISDLMDEGEGLDFNFEPDP
notes: as for B3
Regarding B11, the binding result with endogenous IQGAP1 [6] is listed as “binds”.

B12: Flag-FOXO1-537 (other, human, UniProt Q12778 1-537, looked up)
chain: MAEAPQVVEIDPDFEPLPRPRSCTWPLPRPEFSQSNSATSSPAPSGSAAANPDAAAGLPSASAAAVSADFMSNLSLLEESEDFPQAPGSVAAAVAAAAAAAATGGLCGDFQGPEAGCLHPAPPQPPPPGPLSQHPPVPPAAAGPLAGQPRKSSSSRRNAWGNLSYADLITKAIESSAEKRLTLSQIYEWMVKSVPYFKDKGDSNSSAGWKNSIRRNLSLHSKFIRVQNEGTGKSSWWMLNPEGGKSGKSPRRRAASMDNNSKFAKSRSRAAKKKASLQSGQEGAGDSPGSQFSKWPASPGSHSNDDFDNWSTFRPRTSSNASTISGRLSPIMTEQDDLGEGDVHSMVYPPSAAKMASTLPSLSEISNPENMENLLDNLNLLSSPTSLTVSTQSSPGTMMQQTPCYSFAPPNTSLNSPSPNYQKYTYGQSSMSPLPQMPIQTLQDNKSSYGGMSQYNCAPGLLKELLTSDSPPHNDIMTPVDPGVAQPNSRVLGQNVMMGPNSVMSTYGSQASHNKMMNPSSHTHPGHAQQTSAVNGR
notes: Transcription-deficient mutant that can be phosphorylated by AKT; not shown: Flag tag
In the case of B12, the binding result in the assay with endogenous IQGAP1 [4] was “binds”.

B13: GST-FOXO1-1 (amino acids 1-167) (other, human, UniProt Q12778 1-167, looked up, not shown: a dimerising Fc or GST)
chain: MAEAPQVVEIDPDFEPLPRPRSCTWPLPRPEFSQSNSATSSPAPSGSAAANPDAAAGLPSASAAAVSADFMSNLSLLEESEDFPQAPGSVAAAVAAAAAAAATGGLCGDFQGPEAGCLHPAPPQPPPPGPLSQHPPVPPAAAGPLAGQPRKSSSSRRNAWGNLSYAD
notes: range 1-167
For B13, the binding result with endogenous IQGAP1 [1] is “no binding”.

B14: GST-FOXO1-2 (amino acids 149-267) (other, human, UniProt Q12778 149-267, looked up, not shown: a dimerising Fc or GST)
chain: PRKSSSSRRNAWGNLSYADLITKAIESSAEKRLTLSQIYEWMVKSVPYFKDKGDSNSSAGWKNSIRHNLSLHSKFIRVQNEGTGKSSWWMLNPEGGKSGKSPRRRAASMDNNSKFAKSR
notes: range 149-267
As for B14, the binding result with endogenous IQGAP1 [1] was “no binding”.
